Experimental data published in patent US20200079854A1 (Johns Hopkins, published 2020).

B1: KRAS_G12D_A11_c19 (scFv)
scFv: DIQMTQSPSSLSASVGDRVTITCRASQDVNTAVAWYQQKPGKAPKLLIYSASFLYSGVPSRFSGSRSGTDFTLTISSLQPEDFATYYCQQYSYYPITFGQGTKVEIKRTGGGSGGGGSGGGASEVQLVESGGGLVQPGGSLRLSCAASGFNLSYSYMHWVRQAPGKGLEWVAVISGFSGNTYYADSVKGRFTISADTSKNTAYLQMNSLRAEDTAVYYCSRSDSYYTAMDYWGQGTLVTVSS
B2: KRAS_G12D_A11_c119 (scFv)
scFv: DIQMTQSPSSLSASVGDRVTITCRASQDVNTAVAWYQQKPGKAPKLLIYSASFLYSGVPSRFSGSRSGTDFTLTISSLQPEDFATYYCQQYSSSSPVTFGQGTKVEIKRTGGGSGGGGSGGGASEVQLVESGGGLVQPGGSLRLSCAASGFNFSSYVMHWVRQAPGKGLEWVAVVYPDSGGTYYADSVKGRFTISADTSKNTAYLQMNSLRAEDTAVYYCSRTSSYYAFDYWGQGTLVTVSS
B3: KRAS_G12D_A11_c14 (scFv)
scFv: DIQMTQSPSSLSASVGDRVTITCRASQDVNTAVAWYQQKPGKAPKLLIYSASFLYSGVPSRFSGSRSGTDFTLTISSLQPEDFATYYCQQYSFYPFTFGQGTKVEIKRTGGGSGGGGSGGGASEVQLVESGGGLVQPGGSLRLSCAASGFNFGSYIHWVRQAPGKGLEWVAIISGYSGNTYYADSVKGRFTISADTSKNTAYLQMNSLRAEDTAVYYCSRSNQSAYSYMDYWGQGTLVTVSS
B4: KRAS_G12D_A11_c16 (scFv)
scFv: DIQMTQSPSSLSASVGDRVTITCRASQDVNTAVAWYQQKPGKAPKLLIYSASFLYSGVPSRFSGSRSGTDFTLTISSLQPEDFATYYCQQYSYSPITFGQGTKVEIKRTGGGSGGGGSGGGASEVQLVESGGGLVQPGGSLRLSCAASGFNISDSYMHWVRQAPGKGLEWVATFSPYSSNTWYADSVKGRFTISADTSKNTAYLQMNSLRAEDTAVYYCSRSQFTFYQYFDYWGQGTLVTVSS
B5: KRAS_G12D_A11_c17 (scFv)
scFv: DIQMTQSPSSLSASVGDRVTITCRASQDVNTAVAWYQQKPGKAPKLLIYSAYFLYSGVPSRFSGSRSGTDFTLTISSLQPEDFATYYCQQYSAYYQPITFGQGTKVEIKRTGGGSGGGGSGGGASEVQLVESGGGLVQPGGSLRLSCAASGFNIFSDQMHWVRQAPGKGLEWVAGFMPYDSYYTNYADSVKGRFTISADTSKNTAYLQMNSLRAEDTAVYYCSRMSVRNAFDYWGQGTLVTVSS
B6: KRAS_G12D_A11_c112 (scFv)
scFv: DIQMTQSPSSLSASVGDRVTITCRASQDVNTAVAWYQQKPGKAPKLLIYSASFLYSGVPSRFSGSRSGTDFTLTISSLQPEDFATYYCQQYSYMPITFGQGTKVEIKRTGGGSGGGGSGGGASEVQLVESGGGLVQPGGSLRLSCAASGFNISYQHIHWVRQAPGKGLEWVAVFMPYQGSTYYADSVKGRFTISADTSKNTAYLQMNSLRAEDTAVYYCSRANIYSSHSFFDYWGQGTLVTVSS
B7: KRAS_G12D_A11_c114 (scFv)
scFv: DIQMTQSPSSLSASVGDRVTITCRASQDVNTAVAWYQQKPGKAPKLLIYSASFLYSGVPSRFSGSRSGTDFTLTISSLQPEDFATYYCQQYAYYPVTFGQGTKVEIKRTGGGSGGGGSGGGASEVQLVESGGGLVQPGGSLRLSCAASGFNLSGYYMHWVRQAPGKGLEWVAWFSPYSGYTYYADSVKGRFTISADTSKNTAYLQMNSLRAEDTAVYYCSRTHSSIYHSFDYWGQGTLVTVSS
B8: KRAS_G12D_A11_c110 (scFv)
scFv: DIQMTQSPSSLSASVGDRVTITCRASQDVNTAVAWYQQKPGKAPKLLIYSASFLYSGVPSRFSGSRSGTDFTLTISSLQPEDFATYYCQQYEYVPHTFGQGTKVEIKRTGGGSGGGGSGGGASEVQLVESGGGLVQPGGSLRLSCAASGFNISYGYMHWVRQAPGKGLEWVAKFHYGSGNTYYADSVKGRFTISADTSKNTAYLQMNSLRAEDTAVYYCSRSNYYYLDYWGQGTLVTVSS
B9: KRAS_G12D_A11_c115 (scFv)
scFv: DIQMTQSPSSLSASVGDRVTITCRASQDVNTAVAWYQQKPGKAPKLLIYSASFLYSGVPSRFSGSRSGTDFTLTISSLQPEDFATYYCQQYSYMPITFGQGTKVEIKRTGGGSGGGGSGGGASEVQLVESGGGLVQPGGSLRLSCAASGFNVSGQYMHWVRQAPGKGLEWVAVISPVSGNTYYADSVKGRFTISADTSKNTAYLQMNSLRAEDTAVYYCSRPMKTSYYGAFDYWGQGTLVTVSS
B10: KRAS_G12D_A11_c118 (scFv)
scFv: DIQMTQSPSSLSASVGDRVTITCRASQDVNTAVAWYQQKPGKAPKLLIYSASFLYSGVPSRFSGSRSGTDFTLTISSLQPEDFATYYCQQYDFTPMTFGQGTKVEIKRTGGGSGGGGSGGGASEVQLVESGGGLVQPGGSLRLSCAASGFNISYAKMHWVRQAPGKGLEWVAYLTYWGGYTNYADSVKGRFTISADTSKNTAYLQMNSLRAEDTAVYYCSRGEYGTYMDYWGQGTLVTVSS
B11: KRAS_G12D_A11_c117 (scFv)
scFv: DIQMTQSPSSLSASVGDRVTITCRASQDVNTAVAWYQQKPGKAPKLLIYSASFLYSGVPSRFSGSRSGTDFTLTISSLQPEDFATYYCQQYDYRPVTFGQGTKVEIKRTGGGSGGGGSGGGASEVQLVESGGGLVQPGGSLRLSCAASGFNVSTSGMHWVRQAPGKGLEWVAFIYGAYSGTYYADSVKGRFTISADTSKNTAYLQMNSLRAEDTAVYYCSRSQSYTYWSAMDYWGQGTLVTVSS
B12: H/K/N RAS Q61K_A1_c18 (scFv)
scFv: DIQMTQSPSSLSASVGDRVTITCRASQDVNTAVAWYQQKPGKAPKLLIYSASFLYSGVPSRFSGSRSGTDFTLTISSLQPEDFATYYCQQYAYAPFTFGQGTKVEIKRTGGGSGGGGSGGGASEVQLVESGGGLVQPGGSLRLSCAASGFNVSYSMIHWVRQAPGKGLEWVARVWGDGGVTYYADSVKGRFTISADTSKNTAYLQMNSLRAEDTAVYYCSRGSYYAFDYWGQGTLVTVSS
B13: H/R/N RAS Q61R_A1_c118 (scFv)
scFv: DIQMTQSPSSLSASVGDRVTITCRASQDVNTAVAWYQQKPGKAPKLLIYSASFLYSGVPSRFSGSRSGTDFTLTISSLQPEDFATYYCQQSYTSPLTFGQGTKVEIKRTGGGSGGGGSGGGASEVQLVESGGGLVQPGGSLRLSCAASGFNIYYGVMHWVRQAPGKGLEWVAMIYPDSSWTYYADSVKGRFTISADTSKNTAYLQMNSLRAEDTAVYYCSRDQDFHYMNYYLSYALDYWGQGTLVTVSS
B14: H/K/N RAS Q61H_A1_c10 (scFv)
scFv: DIQMTQSPSSLSASVGDRVTITCRASQDVNTAVAWYQQKPGKAPKLLIYSASFLYSGVPSRFSGSRSGTDFTLTISSLQPEDFATYYCQQGYFYYPNTFGQGTKVEIKRTGGGSGGGGSGGGASEVQLVESGGGLVQPGGSLRLSCAASGFNIGYYGMHWVRQAPGKGLEWVATVYPGGGYTSYADSVKGRFTISADTSKNTAYLQMNSLRAEDTAVYYCSRYYYYGFDYWGQGTLVTVSS
B15: H/R/N RAS Q61R_A1_c117 (scFv)
scFv: DIQMTQSPSSLSASVGDRVTITCRASQDVNTAVAWYQQKPGKAPKLLIYSASFLYSGVPSRFSGSRSGTDFTLTISSLQPEDFATYYCQQSVYDPITFGQGTKVEIKRTGGGSGGGGSGGGASEVQLVESGGGLVQPGGSLRLSCAASGFNISGSWIHWVRQAPGKGLEWVAWLYPDSDYTYYADSVKGRFTISADTSKNTAYLQMNSLRAEDTAVYYCSRAHTYAFDYWGQGTLVTVSS
B16: H/K/N RAS Q61K_A1_c16 (scFv)
scFv: DIQMTQSPSSLSASVGDRVTITCRASQDVNTAVAWYQQKPGKAPKLLIYSASFLYSGVPSRFSGSRSGTDFTLTISSLQPEDFATYYCQQHYYSPVTFGQGTKVEIKRTGGGSGGGGSGGGASEVQLVESGGGLVQPGGSLRLSCAASGFNIFYQDMHWVRQAPGKGLEWVAMIYPDYDYTYYADSVKGRFTISADTSKNTAYLQMNSLRAEDTAVYYCSRTYSVYMDYWGQGTLVTVSS
B17: H/R/N RAS Q61R_A1_c119 (scFv)
scFv: DIQMTQSPSSLSASVGDRVTITCRASQDVNTAVAWYQQKPGKAPKLLIYSASFLYSGVPSRFSGSRSGTDFTLTISSLQPEDFATYYCQQGQYSPFTFGQGTKVEIKRTGGGSGGGGSGGGASEVQLVESGGGLVQPGGSLRLSCAASGFNVSYEYMHWVRQAPGKGLEWVAEIYGGSDNTYYADSVKGRFTISADTSKNTAYLQMNSLRAEDTAVYYCSRPLGSYFDYWGQGTLVTVSS
B18: H/R/N RAS Q61R_A1_c122 (scFv)
scFv: DIQMTQSPSSLSASVGDRVTITCRASQDVNTAVAWYQQKPGKAPKLLIYSASFLYSGVPSRFSGSRSGTDFTLTISSLQPEDFATYYCQQYWYLPTTFGQGTKVEIKRTGGGSGGGGSGGGASEVQLVESGGGLVQPGGSLRLSCAASGFNISWYDIHWVRQAPGKGLEWVADIEPSVGYTYYADSVKGRFTISADTSKNTAYLQMNSLRAEDTAVYYCSRSYPYYYFDYWGQGTLVTVSS
B19: H/R/N RAS Q61R_A1_c116 (scFv)
scFv: DIQMTQSPSSLSASVGDRVTITCRASQDVNTAVAWYQQKPGKAPKLLIYSASFLYSGVPSRFSGSRSGTDFTLTISSLQPEDFATYYCQQAHMIPITFGQGTKVEIKRTGGGSGGGGSGGGASEVQLVESGGGLVQPGGSLRLSCAASGFNFSFPGMHWVRQAPGKGLEWVAWFVGYDGYTYYADSVKGRFTISADTSKNTAYLQMNSLRAEDTAVYYCSRDYYSFSMDYWGQGTLVTVSS

molecular target: KRAS wt(8-16) peptide … with HLA-A11 and b2M on peptide-pulsed MINO cells (human); assay: flow cytometry, phage-displayed scFv on peptide-pulsed MINO cells (FIG. 10)
Protocol: (§1) Cells were stained with 10 μL of precipitated phage per 100 μL of cells, washed and stained with rabbit anti-M13 antibody, then washed and stained with anti-Rabbit-PE antibody. Cells were stained with a live/dead Near-IR dye, washed, and analyzed by an LSRII flow cytometer.
(§2) The pulsed cells were pelleted, washed once in cold stain buffer (PBS containing 0.5% BSA, 2 mM EDTA, and 0.1% sodium azide), and resuspended in 100 μL of stain buffer. Phage staining was performed on ice with 10 uL (approximately 1×10⁹) phage for 1 hour in 100 uL total volume, followed by one 4 mL wash in cold stain buffer. Cells were then stained with 1 uL of rabbit anti-M13 antibody (Pierce, Rockford, Ill.) in 100 uL total volume on ice for 1 hour and washed once with 4 mL of cold stain buffer. Cells were stained with anti-rabbit-PE (Biolegend) on ice for 1 hour in 100 uL total volume, followed by incubation with LIVE/DEAD Fixable Near-IR Dead Cell Stain (Thermo Fisher) for 10 min at room temperature per manufacturer's instructions. Cells were washed once in 4 mL of stain buffer followed by resuspension in 300 uL of stain buffer before analysis. Stained cells were analyzed using an LSRII flow cytometer (Becton Dickinson, Mansfield, Mass.).

Binding result, no binding:
B1
B2
B3
B4
B5
B6
B7
B8
B9
B10
B11

molecular target: H/K/N RAS wt(55-64) peptide … with HLA-A1 and b2M on peptide-pulsed SigM5 cells (human); assay: flow cytometry, phage-displayed scFv on peptide-pulsed SigM5 cells (FIG. 14)
Protocol: as §1, §2

Binding result, no binding:
B12
B13
B14
B15
B16
B17
B18
B19
